Values of other authors, collected in paper PMC3557855.
pKd: −log10 of the molar value. One block for each substance: values may come before it.

What was measured:
Experiment in all cases: SPR
PSGL-1 (Homo sapiens) = PSGL-1 (Homo sapiens) (UniProt Q14242)
GlyCAM-1 (Mus musculus) = GlyCAM-1 (Mus musculus) (UniProt Q02596)
ESL-1 = ESL-1 (UniProt Q61543)
UniProt Q61543, sequence (Q61543 28-1141): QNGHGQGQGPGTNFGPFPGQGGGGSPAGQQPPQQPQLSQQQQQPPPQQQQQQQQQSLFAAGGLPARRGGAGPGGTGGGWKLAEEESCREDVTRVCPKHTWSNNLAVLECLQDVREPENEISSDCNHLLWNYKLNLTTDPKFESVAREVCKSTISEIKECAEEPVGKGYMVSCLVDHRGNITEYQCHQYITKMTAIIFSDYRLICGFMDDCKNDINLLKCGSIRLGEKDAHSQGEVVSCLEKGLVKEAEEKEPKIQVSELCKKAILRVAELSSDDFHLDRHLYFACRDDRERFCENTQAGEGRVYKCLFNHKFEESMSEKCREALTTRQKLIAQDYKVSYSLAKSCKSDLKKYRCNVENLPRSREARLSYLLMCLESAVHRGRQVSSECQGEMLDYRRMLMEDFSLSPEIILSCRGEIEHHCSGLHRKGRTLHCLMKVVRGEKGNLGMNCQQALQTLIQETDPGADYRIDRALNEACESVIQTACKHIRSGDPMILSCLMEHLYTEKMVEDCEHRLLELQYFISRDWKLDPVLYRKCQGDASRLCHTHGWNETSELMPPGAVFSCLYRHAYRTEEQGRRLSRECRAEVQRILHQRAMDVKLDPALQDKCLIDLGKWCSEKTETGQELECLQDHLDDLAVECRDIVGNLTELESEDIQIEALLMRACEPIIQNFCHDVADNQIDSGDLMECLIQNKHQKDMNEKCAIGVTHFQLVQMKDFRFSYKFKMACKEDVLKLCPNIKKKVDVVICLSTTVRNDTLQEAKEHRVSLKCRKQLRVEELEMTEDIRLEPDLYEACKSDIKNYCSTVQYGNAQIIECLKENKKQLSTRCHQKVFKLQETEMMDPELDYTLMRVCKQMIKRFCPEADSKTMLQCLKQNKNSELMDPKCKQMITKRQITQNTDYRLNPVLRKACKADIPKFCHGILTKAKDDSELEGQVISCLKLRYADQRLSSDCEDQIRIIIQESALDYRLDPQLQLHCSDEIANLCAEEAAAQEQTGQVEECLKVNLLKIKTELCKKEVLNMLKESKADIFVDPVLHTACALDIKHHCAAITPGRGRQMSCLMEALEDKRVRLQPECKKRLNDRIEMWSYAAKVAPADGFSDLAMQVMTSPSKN

UniProt Q14242, sequence (Q14242 42-320): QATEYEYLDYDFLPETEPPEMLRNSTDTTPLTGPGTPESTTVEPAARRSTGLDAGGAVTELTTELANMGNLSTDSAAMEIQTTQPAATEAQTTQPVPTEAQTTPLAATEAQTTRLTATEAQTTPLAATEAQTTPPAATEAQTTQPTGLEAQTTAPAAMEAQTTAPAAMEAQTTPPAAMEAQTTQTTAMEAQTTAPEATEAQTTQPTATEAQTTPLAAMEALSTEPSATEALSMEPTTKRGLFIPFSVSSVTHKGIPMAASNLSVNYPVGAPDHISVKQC
UniProt Q02596, sequence (Q02596 20-151): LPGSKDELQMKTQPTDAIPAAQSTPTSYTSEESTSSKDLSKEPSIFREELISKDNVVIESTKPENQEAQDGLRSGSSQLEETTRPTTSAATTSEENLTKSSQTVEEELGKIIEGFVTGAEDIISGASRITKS

pKd (PSGL-1 (Homo sapiens)): 4.33
Substance: L-selectin (from UniProt P14151)

pKd (GlyCAM-1 (Mus musculus)): 3.97
Substance: L-selectin (from UniProt P18337)

pKd (ESL-1): 4.21
Substance: E-selectin (from UniProt P16581)
